In US20140030278A1 (QUIAPEG PHARMACEUTICALS, published 2014):

B1: etanercept (ENBREL®), non-PEGylated (Fc fusion)
chain: LPAQVAFTPYAPEPGSTCRLREYYDQTAQMCCSKCSPGQHAKVFCTKTSDTVCDSCEDSTYTQLWNWVPECLSCGSRCSSDQVETQACTREQNRICTCRPGWYCALSKQEGCRLCAPLRKCRPGFGVARPGTETSDVVCKPCAPGTFSNTTSSTDICRPHQICNVVAIPGNASMDAVCTSTSPTRSMAPGAVHLPQPVSTRSQHTQPTPEPSTAPSTSFLLPMGPSPPAEGSTGDEPKSCDKTHTCPPCPAPELLGGPSVFLFPPKPKDTLMISRTPEVTCVVVDVSHEDPQVKFNWYVDGVQVHNAKTKPREQQYNSTYRVVSVLTVLHQNWLDGKEYKCKVSNKALPAPIEKTISKAKGQPREPQVYTLPPSREEMTKNQVSLTCLVKGFYPSDIAVEWESNGQPENNYKTTPPVLDSDGSFFLYSKLTVDKSRWQQGNVFSCSVMHEALHNHYTQKSLSLSPGK
notes: Commercial ENBREL (Wyeth Europa Ltd); also called etanercept (non-PEGylated); non-PEGylated etanercept
B2: PEG20-etanercept (5 eq) (Fc fusion)
chain: B1 chain
modifications: 20 KDa PEG (PEG20) conjugated via NHS-ester PEG reagent at 5 times molar excess; sites not stated
notes: also called PEGylated etanercept
B3: PEG20-etanercept (10 eq) (Fc fusion)
chain: B1 chain
modifications: 20 KDa PEG (PEG20) conjugated via NHS-ester PEG reagent at 10 times molar excess; sites not stated
notes: as for B2

Experiments:
[1] = target: T1, Recombinant human TNF-alpha (human, UniProt P01375 77-233); assay: pre-incubation with 2.9 ng/ml rhTNF-alpha, ELISA of unbound rhTNF-alpha
T1 construct: Bought reagent; also called rhTNF-alpha; TNF-α
T1 sequence (P01375 77-233 limits assumed): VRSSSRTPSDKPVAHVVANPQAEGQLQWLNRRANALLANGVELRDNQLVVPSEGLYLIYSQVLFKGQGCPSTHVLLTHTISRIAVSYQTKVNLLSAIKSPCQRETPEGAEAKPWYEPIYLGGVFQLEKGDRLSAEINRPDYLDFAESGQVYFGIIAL
Procedure: (§1) A fixed concentration of 2.9 ng/ml rhTNF-alpha was used in all incubations. PEGylation was conducted in 5 time molar excess (5 eq) or 10 time molar excess (10 eq) of PEG20 compared etanercept. IC₅₀ is expressed as gram etanercept per ml.
(§2) Recombinant human TNF-alpha (rhTNF-alpha; AbCam PLC, Cambridge, UK; at a fixed concentration of 2.9 ng/ml) was mixed with different concentrations (29000 ng/ml—56.6 pg/ml) of non-PEGylated etanercept, PEG20-etanercept (5 eq) or PEG20-etanercept (10 eq). The pre-incubation mixtures were incubated in a refrigerator at 4-8° C. overnight. The amount of unbound rhTNF-alpha was analysed with a sensitive enzyme-linked immunosorbent assay (ELISA). In brief, 96-well plates (MaxiSorb, Nunc, Roskilde, Denmark) were used for the ELISA. Plates were coated with two anti-TNF-alpha monoclonal antibodies (TNF3/4, Mabtech AB, Nacka Strand, Sweden) diluted in PBS, pH 7.4, to a final concentration of 2 μg/ml. The 96-well plates were incubated in a refrigerator at 4-8° C. overnight. […] The optical density of the resultant yellow color was measured in a spectrophotometer at 450 nm.

[2] = target: T1, Recombinant human TNF-alpha; assay: pre-incubation with 2.9 ng/ml rhTNF-alpha, ELISA of unbound rhTNF-alpha, 4-parameter fit
Procedure: as §1, §2

Binder	binding result [1]	fold IC50 against non-PEGylated etanercept [2]
B1	binds	–
B2	–	< 2 fold
B3	–	< 2 fold
